According to patent publication US20220064250A1 (AKSTON BIOSCIENCES, published 2022):
Changes are numbered by the printed parent chain.

Assays:
[1] = molecular target: T1, human insulin receptor on human IM-9 cells (human, UniProt P06213 28-1382); assay: IM-9 cells, competition with biotinylated RHI, flow cytometry, 4 C
T1 construct: whole, on cells; Endogenous receptor on IM-9 cells; assay run at 4 C; also called IR
Method: (§1) 40 μL of an IM-9 cell suspension (8×10^6 cells/mL) was then added to each well by multichannel pipette, mixed again gently and incubated on ice for 30 min to allow competitive binding on the insulin receptor on IM-9 cells. Cells were then washed twice with 275 μL of ice-cold FACS wash buffer (HBSS/2 mM EDTA/0.1% Na-azide+0.5% horse serum) by centrifuging the V-bottom plate at 3000 rpm for 3 min and aspirating the supernatant. Cells were then resuspended in 40 μL of FACS staining medium containing 1:100 diluted Streptavidin-PE (Life Technologies) for 20 min on ice. Cells were then washed once with 275 μL of ice-cold FACS buffer and finally fixed with 3% paraformaldehyde for 10 min at room temp. Cells were then washed once with 275 μL of ice-cold FACS buffer and resuspended in 250 μl of FACS buffer for analysis.
The V-bottom plates containing cells were then analyzed on a Guava 8-HT flow cytometer (Millipore). Biotinylated-RHI binding to insulin receptor was quantitated by the median fluorescence intensity (MFI) of the cells on the FACS FL-2 channel for each concentration of the test compound. […] The % inhibition by test compounds of biotinylated-RHI binding on IM-9 cells was plotted against log concentrations of the test compound, and the resulting IC50 values were calculated using GraphPad Prism (GraphPad Software, La Jolla, Calif.) for the test compounds. […]

[2] = molecular target: T1, human insulin receptor on human IM-9 …; assay: IM-9 cells, competition with biotinylated RHI, flow cytometry, 4 C (Table 3, same data as Table 7)
Method: as §1
The V-bottom plates containing cells were then analyzed on a Guava 8-HT flow cytometer (Millipore). Biotinylated-RHI binding to insulin receptor was quantitated by the median fluorescence intensity (MFI) of the cells on the FACS FL-2 channel for each concentration of the test compound. Control wells were labeled only with biotinylated-RHI and were used to calculate the percent (%) inhibition resulting from each test compound concentration. The % inhibition by test compounds of biotinylated-RHI binding on IM-9 cells was plotted against log concentrations of the test compound, and the resulting IC50 values were calculated using GraphPad Prism (GraphPad Software, La Jolla, Calif.) for the test compounds. Lower IC50 values of the test compound therefore indicate greater levels of biotinylated-RHI inhibition at lower concentrations indicating stronger binding of the insulin-Fc fusion protein to the insulin receptor. A control compound, such as unlabeled recombinant human insulin (RHI) was also used as an internal standard to generate an RHI IC50 against which a given compound IC50 could be ratioed (IC50(compound)/IC50(RHI)). […]

[3] = molecular target: T1, human insulin receptor on human IM-9 …; assay: IM-9 cells, competition with biotinylated RHI, flow cytometry, 4 C (Table 5, same data as Table 9)
Method: (§2) Cultures of IM-9 cells were centrifuged at 250×g (˜1000 rpm) for 10 min to pellet the cells. Cells were washed once with HBSS or PBS buffer, resuspended in cold FACS staining medium (HBSS/2 mM EDTA/0.1% Na-azide+4% horse serum) to a concentration of 8×10^6 cells/mL and kept on ice or 4° C. until test solutions were made. The insulin-Fc protein was diluted in FACS buffer in 1:3 serial dilutions as 2× concentrations in 1.2 mL tubes (approx. 60 μL volume of each dilution), and the solutions were kept cold on ice until ready for pipetting.
(§3) Biotinylated-RHI was diluted in FACS staining medium to a concentration of 1.25 μg/mL. 40 μL of the serially diluted test compound and 8 μL of 1.25 μg/mL Biotin-RHI were added into each well of a V bottom microtiter plate, mixed by slow vortexing, and placed on ice. […]
(§4) The V-bottom plates containing cells were then analyzed on a Guava 8-HT flow cytometer (Millipore). Biotinylated-RHI binding to insulin receptor was quantitated by the median fluorescence intensity (MFI) of the cells on the FACS FL-2 channel for each concentration of the test compound. […] The % inhibition by test compounds of biotinylated-RHI binding on IM-9 cells was plotted against log concentrations of the test compound, and the resulting IC50 values were calculated using GraphPad Prism (GraphPad Software, La Jolla, Calif.) for the test compounds.

[4] = molecular target: T1, human insulin receptor on human IM-9 …; assay: IM-9 cells, competition with biotinylated RHI, flow cytometry, 4 C; remark: listed apart in the source
Method: as §2, §3, §4

T1 sequence (P06213 28-1382): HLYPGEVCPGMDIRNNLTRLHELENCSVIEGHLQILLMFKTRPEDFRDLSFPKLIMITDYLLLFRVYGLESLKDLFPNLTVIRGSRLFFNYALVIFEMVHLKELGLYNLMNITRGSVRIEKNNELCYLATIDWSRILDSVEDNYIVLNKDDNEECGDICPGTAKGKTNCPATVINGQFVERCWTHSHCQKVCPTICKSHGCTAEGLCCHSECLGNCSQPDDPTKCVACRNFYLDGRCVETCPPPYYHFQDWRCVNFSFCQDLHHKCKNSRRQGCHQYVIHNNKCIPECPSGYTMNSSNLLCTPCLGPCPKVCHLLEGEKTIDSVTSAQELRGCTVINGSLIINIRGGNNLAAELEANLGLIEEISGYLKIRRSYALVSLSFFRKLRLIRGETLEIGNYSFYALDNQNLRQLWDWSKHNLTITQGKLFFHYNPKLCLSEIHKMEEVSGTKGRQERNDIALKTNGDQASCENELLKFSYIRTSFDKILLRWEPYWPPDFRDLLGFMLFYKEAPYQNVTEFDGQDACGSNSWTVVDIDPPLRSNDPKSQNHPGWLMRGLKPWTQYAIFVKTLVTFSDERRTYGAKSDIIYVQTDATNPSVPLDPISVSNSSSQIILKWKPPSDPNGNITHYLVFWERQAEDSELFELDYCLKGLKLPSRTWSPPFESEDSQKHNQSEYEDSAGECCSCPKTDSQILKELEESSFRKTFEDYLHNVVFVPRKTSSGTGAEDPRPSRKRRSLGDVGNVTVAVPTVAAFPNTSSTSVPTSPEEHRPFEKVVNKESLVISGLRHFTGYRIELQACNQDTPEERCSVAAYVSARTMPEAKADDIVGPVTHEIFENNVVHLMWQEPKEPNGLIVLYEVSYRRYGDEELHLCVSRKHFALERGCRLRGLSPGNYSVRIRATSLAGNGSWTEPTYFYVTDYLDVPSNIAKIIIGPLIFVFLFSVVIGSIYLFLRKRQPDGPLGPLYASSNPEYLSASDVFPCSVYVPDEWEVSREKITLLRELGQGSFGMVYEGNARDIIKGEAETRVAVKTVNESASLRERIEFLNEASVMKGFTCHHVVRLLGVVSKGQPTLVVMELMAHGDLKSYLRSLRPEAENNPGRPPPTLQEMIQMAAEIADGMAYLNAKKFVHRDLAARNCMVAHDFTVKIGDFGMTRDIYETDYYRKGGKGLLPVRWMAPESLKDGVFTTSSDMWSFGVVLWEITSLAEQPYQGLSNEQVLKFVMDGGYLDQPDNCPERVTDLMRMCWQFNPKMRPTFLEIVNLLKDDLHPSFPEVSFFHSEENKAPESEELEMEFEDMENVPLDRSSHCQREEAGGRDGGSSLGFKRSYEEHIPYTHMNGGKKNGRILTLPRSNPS

B1: insulin-Fc fusion protein of SEQ ID NO: 41 (insulin polypeptide SEQ ID NO: 16, linker SEQ ID NO: 25, canine IgGB Fc fragment SEQ ID NO: 29) (Fc fusion)
chain: FVNQHLCGSDLVEALALVCGERGFFYTDPTGGGPRRGIVEQCCHSICSLYQLENYCNGGGGAGGGGDCPKCPAPEMLGGPSVFIFPPKPKDTLLIARTPEVTCVVVDLDPEDPEVQISWFVDGKQMQTAKTQPREEQFNGTYRVVSVLPIGHQDWLKGKQFTCKVNNKALPSPIERTISKARGQAHQPSVYVLPPSREELSKNTVSLTCLIKDFFPPDIDVEWQSNGQQEPESKYRTTPPQLDEDGSYFLYSKLSVDKSRWQRGDTFICAVMHEALHNHYTQESLSHSPG
notes: Disulfide-linked homodimer made in HEK293 cells; 93% homodimer; native cNg glycosylation site kept
- IC50 [1]: 28 nM
- IC50 [2]: 28 nM

B2: insulin-Fc fusion protein of SEQ ID NO: 47 (insulin polypeptide SEQ ID NO: 16, linker SEQ ID NO: 25, canine IgGB Fc fragment with cNg-S) (Fc fusion)
chain: B1 chain with N139S
notes: Non-glycosylated homodimer made in HEK293 cells; also called cNg-NB139-S
- IC50 [3]: 145 nM
- IC50 [4]: 145 nM

B3: insulin-Fc fusion protein of SEQ ID NO: 45 (insulin polypeptide SEQ ID NO: 16, linker SEQ ID NO: 25, canine IgGD Fc fragment SEQ ID NO: 31) (Fc fusion)
chain: FVNQHLCGSDLVEALALVCGERGFFYTDPTGGGPRRGIVEQCCHSICSLYQLENYCNGGGGAGGGGCISPCPVPESLGGPSVFIFPPKPKDILRITRTPEITCVVLDLGREDPEVQISWFVDGKEVHTAKTQPREQQFNSTYRVVSVLPIEHQDWLTGKEFKCRVNHIGLPSPIERTISKARGQAHQPSVYVLPPSPKELSSSDTVTLTCLIKDFFPPEIDVEWQSNGQPEPESKYHTTAPQLDEDGSYFLYSKLSVDKSRWQQGDTFTCAVMHEALQNHYTDLSLSHSPG
notes: Homodimer made in HEK293 cells; the preparation was highly aggregated (12% homodimer)
- IC50 [2]: > 5000 nM

B4: insulin-Fc fusion protein of SEQ ID NO: 51 (insulin polypeptide SEQ ID NO: 16, linker SEQ ID NO: 25, canine IgGB Fc fragment with des hinge D and cNg-K, i.e. … (Fc fusion)
chain: FVNQHLCGSDLVEALALVCGERGFFYTDPTGGGPRRGIVEQCCHSICSLYQLENYCNGGGGAGGGGCPKCPAPEMLGGPSVFIFPPKPKDTLLIARTPEVTCVVVDLDPEDPEVQISWFVDGKQMQTAKTQPREEQFKGTYRVVSVLPIGHQDWLKGKQFTCKVNNKALPSPIERTISKARGQAHQPSVYVLPPSREELSKNTVSLTCLIKDFFPPDIDVEWQSNGQQEPESKYRTTPPQLDEDGSYFLYSKLSVDKSRWQRGDTFICAVMHEALHNHYTQESLSHSPG
notes: Non-glycosylated homodimer made in HEK293 cells; also called cNg-NB138-K
- IC50 [3]: 147 nM
- IC50 [4]: 147 nM

B5: insulin-Fc fusion protein of SEQ ID NO: 33 (insulin polypeptide SEQ ID NO: 16, linker SEQ ID NO: 25, canine IgGA Fc fragment SEQ ID NO: 28) (Fc fusion)
chain: FVNQHLCGSDLVEALALVCGERGFFYTDPTGGGPRRGIVEQCCHSICSLYQLENYCNGGGGAGGGGRCTDTPPCPVPEPLGGPSVLIFPPKPKDILRITRTPEVTCVVLDLGREDPEVQISWFVDGKEVHTAKTQSREQQFNGTYRVVSVLPIEHQDWLTGKEFKCRVNHIDLPSPIERTISKARGRAHKPSVYVLPPSPKELSSSDTVSITCLIKDFYPPDIDVEWQSNGQQEPERKHRMTPPQLDEDGSYFLYSKLSVDKSRWQQGDPFTCAVMHETLQNHYTDLSLSHSPG
notes: Disulfide-linked homodimer made in HEK293 cells; the preparation was only 24% homodimer (highly aggregated)
- IC50 [1]: 2730 nM
- IC50 [2]: 2730 nM
